Results on one molecule are retold here after paper PMC7104187.

The target of the data set is T1, SauCas9 (Staphylococcus aureus, UniProt J7RUA5 1-1053).
T1 sequence: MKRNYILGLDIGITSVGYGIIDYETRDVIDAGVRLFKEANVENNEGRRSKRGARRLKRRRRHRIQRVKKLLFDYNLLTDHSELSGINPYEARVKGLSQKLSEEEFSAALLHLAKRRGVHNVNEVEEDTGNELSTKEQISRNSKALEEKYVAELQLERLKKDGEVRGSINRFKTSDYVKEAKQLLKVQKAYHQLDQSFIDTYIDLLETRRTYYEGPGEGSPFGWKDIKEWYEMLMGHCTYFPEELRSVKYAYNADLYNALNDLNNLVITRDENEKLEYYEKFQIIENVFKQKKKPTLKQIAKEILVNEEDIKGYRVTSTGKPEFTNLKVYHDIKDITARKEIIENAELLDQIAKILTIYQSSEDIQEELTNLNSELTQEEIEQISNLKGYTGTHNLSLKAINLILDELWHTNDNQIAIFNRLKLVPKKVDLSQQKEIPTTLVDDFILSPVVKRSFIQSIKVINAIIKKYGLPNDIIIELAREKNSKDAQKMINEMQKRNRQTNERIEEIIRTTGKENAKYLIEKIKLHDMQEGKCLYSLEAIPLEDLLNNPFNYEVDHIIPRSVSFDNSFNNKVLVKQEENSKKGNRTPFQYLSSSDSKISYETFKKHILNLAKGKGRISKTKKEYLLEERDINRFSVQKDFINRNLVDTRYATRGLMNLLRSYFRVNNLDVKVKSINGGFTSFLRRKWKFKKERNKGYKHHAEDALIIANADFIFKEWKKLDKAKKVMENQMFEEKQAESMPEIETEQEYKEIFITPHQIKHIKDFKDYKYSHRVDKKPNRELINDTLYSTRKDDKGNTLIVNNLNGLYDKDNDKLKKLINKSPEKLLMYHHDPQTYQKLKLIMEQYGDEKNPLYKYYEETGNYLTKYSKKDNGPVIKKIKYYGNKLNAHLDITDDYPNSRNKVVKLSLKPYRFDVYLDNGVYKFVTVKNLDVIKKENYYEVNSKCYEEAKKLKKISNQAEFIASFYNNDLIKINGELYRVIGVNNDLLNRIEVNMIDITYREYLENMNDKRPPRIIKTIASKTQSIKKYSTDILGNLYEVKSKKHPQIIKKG
Kind of data set: EMSA.

B1: EGFP sgRNA + target dsDNA (T) (mixed)
RNA: GCAAGGGCGAGGAGCUGUUCACGUUUUAGUACUCUGGAAACAGAAUCUACUAAAACAAGGCAAAAUGCCGUGUUUAUCUCGUCAACUUGUUGGCGAGAUUUUU
DNA 1: TGGTGAGCAAGGGCGAGGAGCTGTTCACCGGGGT
DNA 2: ACCCCGGTGAACAGCTCCTCGCCCTTGCTCACCA
B1: the binding result is listed as “binds”.
